In US20150182631A1, “SYSTEM FOR […]-BASED ACTIVE INGREDIENTS” (Centre National De La Recherche Scientifique-CNRS, priority 2012, published 2015):

How the values were obtained:
[1] = biological target: the molecule itself; assay: isothermal titration calorimetry, dilution of concentrated XCL into buffer; tetramer-dimer equilibrium; tetramer-dimer equilibrium of XCL by dilution ITC
Protocol: In order to accurately measure the equilibrium constant of tetramerisation and also determine the thermodynamics of the tetramerisation of XCL, the inventors used isothermal titration calorimetry (Burrows et al., (1994) Lovatt et al., (1996) Barranco-Medina et al. (2009)). In this method, a concentrated solution of XCL was diluted in a buffer, and the dissociation heat of the dimers (or of the monomers) was measured. The quantity of heat released for each injection is governed by the enthalpy exchange from the tetramer to the dimer and the tetramer-dimer equilibrium constant.

[2] = biological target: the molecule itself; assay: size exclusion chromatography at pH 7.2 and pH 4.4; tetramer kept
Protocol: The behaviour of the oxidised mutant A38C was also analysed. […] When the pH is decreased to 4.4, no modification in the elution volume is observed. The addition of the disulphide bridge therefore increases the stability of the protein assembly. The adding of 0.003% SDS leads to the dissociation of the tetramer into dimers, constituted of monomers bonded together by the disulphide bridge.

XCL labelled with RITC [3] = biological target: T1, XCL labelled with RITC (Xerocomus chrysenteron, RITC on surface epsilon-amino groups, 0.9 mol of RITC per mol of XCL); assay: FRET kinetics at 580 nm after mixing XCL-FITC and XCL-RITC, double exponential fit; slow dissociation of the tetramer (proportion a=0.39); k1, slower of the two dissociation pathways of the tetramer
T1 construct: FRET acceptor population of XCL; also called RITC-XCL; XCL-RITC
T1 chain: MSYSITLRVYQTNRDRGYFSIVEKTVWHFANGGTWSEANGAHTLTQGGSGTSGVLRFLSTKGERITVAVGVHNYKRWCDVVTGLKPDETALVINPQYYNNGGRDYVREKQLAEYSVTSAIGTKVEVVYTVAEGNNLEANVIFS
Protocol: (§1) The speed of the exchange of subunits was measured by the same technique. The reaction is initiated by mixing the same volume of XCL-RITC (1 μM) and of XCL-FITC (1 μM) at 25° C. in 50 mM of phosphate buffer, 100 mM NaCl, pH 8.5. The excitation is carried out at 468 nm and the fluorescence emission at 580 nm is recorded every 0.5 seconds. The fluorescence intensity is normalised by using the equation: […]

XCL labelled with RITC [4] = biological target: T1, XCL labelled with RITC; assay: FRET kinetics at 580 nm after mixing XCL-FITC and XCL-RITC, double exponential fit; fast dissociation of the tetramer; k2, faster of the two dissociation pathways of the tetramer
Protocol: as §1

[5] = SDS-PAGE of tetramer and disulphide bridge stability; format: physicochemical; details: reduced glutathione 10 mM in oxidation buffer
Protocol: The clone A38C was obtained by directed mutagenesis by using the XCL plasmid as a matrix and the protein produced and purified by using the same protocol as that used to produce XCL (Trigueros et al. (2003)). A yield of 25 mg of purified protein per litre of culture was obtained. The last part of the protocol consisted in a step of oxidation for 12 hours in the presence of 10 mM of oxidised glutathione. This step is required in order to produce disulphide bridges between the monomers. The forming of these covalent bonds was verified by SDS-PAGE. Two SDS-PAGE were prepared. Beta-mercaptoethanol was added to the samples in the first gel while beta-mercaptoethanol was not added to the second gel. When XCL is heated to 95° C. 5 min before the deposit, a single band is observed with a molecular weight slightly greater than 20 kDa on the two gels. This band corresponds to the species in monomer form.
A variant T12C was produced in the same manner as A38C by directed mutagenesis by using the XCL plasmid as a matrix. By using the same protocol, 10 mg of protein per litre of culture were produced. The oxidation rate of the variant T12C was sought by using the same method by SDS-PAGE as for A38C. These rates were compared with those obtained with the variant A38C. Several oxidative conditions were tested with different concentrations of reduced glutathione. […]

[6] = Balanced FRET, exchange of monomers; format: physicochemical; details: 1 h incubation, pH 8.5
Protocol: Fluorescence energy transfer was used to reveal the exchange of the XCL monomers. The exchange reaction is initiated by mixing the same volume of XCL-RITC (1 μM or only the buffer as a reference) and of XCL-FITC (1 μM) at 25° C. in 50 mM of phosphate buffer, 100 mM NaCl, pH 8.5. After one hour of incubation, the emission spectrum of the sample excited at 490 nm is recorded by spectrofluorimetry (Photon Technology International QM-4). The same experiments were carried out with A38C-RITC and A38C-FITC.
The oligomerization balance of the XCL protein was characterised by the measurement of the appearance of resonance energy transfer of the Förster type (FRET) between two populations of XCL labelled separately either with FITC (Fluorescein IsoThioCyanate) or with RITC (Rhodamine IsoThioCyanate).
In this same figure, is also shown the spectrum obtained by mixing the labelled protein, either by the donor or by the acceptor (dotted line curve). This spectrum was deconvoluted, which gives the spectra shown as a dotted line in FIG. 2A.
For the purposes of comparison, the same experiment was carried out with the variant A38C. This variant is covalently bonded by two additional disulphide bridges. A perfectly superimposable spectrum was obtained after mixing donor and acceptor labelled proteins and incubation of this mixture for 1 h at ambient temperature (dotted lines of FIG. 3B).

[7] = Confinement of fluorescein in the lectin cavity; details: 4 days at ambient temperature, free fluorescein eliminated again
Protocol: The confinement experiments are carried out by incubating the wild-type protein (XCL) or the mutants (A38C) with the molecule to be tested. In order to carry out the control experiments with the mutant A38C, an oxidation step is carried out in the presence of GSSG in a phosphate buffer 50 mM, 100 mM NaCl, pH 7.2, OVN. The GSSG is then eliminated on a PD-10 sephadex G-25M column (GE Healthcare) pre-balanced in a phosphate buffer 50 mM, 100 mM NaCl, pH 8.5. The eluate is concentred at 1 ml on Vivaspin 15R 30,000 MWCO (Sartorius stedim). A batch of A38C is reduced to TCEP (under argon) with adding of NaOH for a final pH of 8.5. […] The quantity of fluorescein is measured by using an absorption coefficient of e511 nm=75,000 cm^−1 M^−1. The concentrations of XCL and of A38C after the confinement are calculated with e278 nm=[…]. The percentage of confinement is calculated by forming the ratio of the fluorescein/protein concentrations.
In the case with XCL, the inventors incubated the protein (15 μM) with fluorescein (10 mM) and then separated the protein from the non-confined molecules of fluorescein by two successive gel filtration columns. Beforehand, the inventors verified that if these two columns on the fluorescein solution are carried out at 10 mM, no residual free fluorescein is detected. […]

[8] = Chemical dissociation by size exclusion chromatography at acidic pH; format: physicochemical
Protocol: The size exclusion chromatography experiments were carried out on a GE-Healthcare Superose 12 PC 3.2/30 column. The columns are pre-balanced in the buffer tested, namely phosphate buffer 50 mM, 100 mM NaCl, pH7.2 or pH 4.4 in the absence or in the presence of 0.003% of SDS. The flow rate is 0.5 mL/min. The BSA and the RNase A are used as a size marker.
The inventors studied the behaviour of XCL in denaturing chemical conditions close to those encountered in the lysosomes. The analysis was carried out via exclusion chromatography with an acidic pH (pH 4.4). It appears that the elution peak of XCL in these denaturing conditions is displaced to greater elution volumes showing the appearance of a smaller size. When 0.003% SDS is added, the elution peak is displaced to the elution volume of the RNAse A which has a molecular weight close to the XCL monomer.
The behaviour of the oxidised mutant A38C was also analysed. […] The addition of the disulphide bridge therefore increases the stability of the protein assembly.

B1: Xerocomus chrysenteron lectin (XCL) (other)
chain: MSYSITLRVYQTNRDRGYFSIVEKTVWHFANGGTWSEANGAHTLTQGGSGTSGVLRFLSTKGERITVAVGVHNYKRWCDVVTGLKPDETALVINPQYYNNGGRDYVREKQLAEYSVTSAIGTKVEVVYTVAEGNNLEANVIFS
notes: Recombinant fungal lectin, a homotetramer in solution; also called wild-type protein; native XCL protein
**Q.** Which Kd [1] does the source give for B1 here?
**A.** 4.5 µM

B2: XCL variant A38C, oxidised (other)
chain: MSYSITLRVYQTNRDRGYFSIVEKTVWHFANGGTWSECNGAHTLTQGGSGTSGVLRFLSTKGERITVAVGVHNYKRWCDVVTGLKPDETALVINPQYYNNGGRDYVREKQLAEYSVTSAIGTKVEVVYTVAEGNNLEANVIFS
modifications: interchain disulphide bridge between Cys 38 of opposite monomers (oxidised with GSSG)
notes: Homotetramer with two added disulphide bridges that link monomers diagonally; In the FRET experiment it was labelled with FITC or RITC; also called mutant A38C; oxidised mutant A38C
**Q.** Does B2 bind [2]?
**A.** binds

B3: XCL labelled with FITC (other)
chain: MSYSITLRVYQTNRDRGYFSIVEKTVWHFANGGTWSEANGAHTLTQGGSGTSGVLRFLSTKGERITVAVGVHNYKRWCDVVTGLKPDETALVINPQYYNNGGRDYVREKQLAEYSVTSAIGTKVEVVYTVAEGNNLEANVIFS
modifications: FITC on surface epsilon-amino groups, 4 mol of FITC per mol of XCL
notes: FRET donor population of XCL; also called FITC-XCL; XCL-FITC
**Q.** Which results are given for B3?
**A.** koff (XCL labelled with RITC [3]): 0.012 s⁻¹; koff (XCL labelled with RITC [4]): 0.042 s⁻¹

B4: T12C: XCL variant with threonine 12 replaced by cysteine, SEQ ID NO: 3 (protein)
chain: MSYSITLRVYQCNRDRGYFSIVEKTVWHFANGGTWSEANGAHTLTQGGSGTSGVLRFLSTKGERITVAVGVHNYKRWCDVVTGLKPDETALVINPQYYNNGGRDYVREKQLAEYSVTSAIGTKVEVVYTVAEGNNLEANVIFS
modifications: Variant T12C
**Q.** With B4 as the molecule, how does the “stability of the additional disulphide bridge” value [5] read?
**A.** less stable than the disulphide bridge of A38C

B5: A38C: XCL variant with alanine 38 replaced by cysteine, SEQ ID NO: 2; A38R reduced before confinement, A38NR not reduced, A38Cox oxidised (protein)
chain: MSYSITLRVYQTNRDRGYFSIVEKTVWHFANGGTWSECNGAHTLTQGGSGTSGVLRFLSTKGERITVAVGVHNYKRWCDVVTGLKPDETALVINPQYYNNGGRDYVREKQLAEYSVTSAIGTKVEVVYTVAEGNNLEANVIFS
modifications: Variant A38C
notes: A38R reduced before confinement, A38NR not reduced, A38Cox oxidised
**Q.** For B5, which “FRET between FITC- and RITC-labelled protein after mixing (monomer redistribution)” value [6] is on record?
**A.** no FRET is observed

**Q.** What about the “confinement rate after incubation” value [7] of the same molecule?
**A.** remained unchanged

**Q.** And the “oligomeric state by elution volume at pH 4.4 with SDS” value ([8]; pH 4.4, 0.003% SDS)?
**A.** dissociation of the tetramer into dimers

**Q.** And the “oligomeric state by elution volume at pH 4.4” value ([8]; pH 4.4, no SDS)?
**A.** no modification in the elution volume is observed
